We go through six molecules from article PMC4915676, “Dissociation Dynamics of XPC-RAD23B from Damaged DNA Is a Determining Factor of NER Efficiency”.

Data set [1] has as its target T1, XPC-RAD23B (Homo sapiens, UniProt Q01831;P54727 1-940;1-409). Briefly: SPR; 5 mM Mg2+; SPR: HBS-P+ (10 mM HEPES, 150 mM NaCl, 0.05% P20), 5 mM MgCl2, 1 mM DTT, 100 ug/mL BSA (+0.5 mM ATP for UvrA), pH and temperature not stated; EMSA: 20 mM Hepes-KOH pH 7.9, 75 mM KCl, 5 mM MgCl2, 1 mM DTT, 5% glycerol, 100 ug/mL BSA, 30 C. To be noted: protein: recombinant; copies: 1;1; label: 5'-biotin on strand 1; blunt.

In a further data set the target is T2, UvrA (UniProt P0A698 1-940).
T2 sequence: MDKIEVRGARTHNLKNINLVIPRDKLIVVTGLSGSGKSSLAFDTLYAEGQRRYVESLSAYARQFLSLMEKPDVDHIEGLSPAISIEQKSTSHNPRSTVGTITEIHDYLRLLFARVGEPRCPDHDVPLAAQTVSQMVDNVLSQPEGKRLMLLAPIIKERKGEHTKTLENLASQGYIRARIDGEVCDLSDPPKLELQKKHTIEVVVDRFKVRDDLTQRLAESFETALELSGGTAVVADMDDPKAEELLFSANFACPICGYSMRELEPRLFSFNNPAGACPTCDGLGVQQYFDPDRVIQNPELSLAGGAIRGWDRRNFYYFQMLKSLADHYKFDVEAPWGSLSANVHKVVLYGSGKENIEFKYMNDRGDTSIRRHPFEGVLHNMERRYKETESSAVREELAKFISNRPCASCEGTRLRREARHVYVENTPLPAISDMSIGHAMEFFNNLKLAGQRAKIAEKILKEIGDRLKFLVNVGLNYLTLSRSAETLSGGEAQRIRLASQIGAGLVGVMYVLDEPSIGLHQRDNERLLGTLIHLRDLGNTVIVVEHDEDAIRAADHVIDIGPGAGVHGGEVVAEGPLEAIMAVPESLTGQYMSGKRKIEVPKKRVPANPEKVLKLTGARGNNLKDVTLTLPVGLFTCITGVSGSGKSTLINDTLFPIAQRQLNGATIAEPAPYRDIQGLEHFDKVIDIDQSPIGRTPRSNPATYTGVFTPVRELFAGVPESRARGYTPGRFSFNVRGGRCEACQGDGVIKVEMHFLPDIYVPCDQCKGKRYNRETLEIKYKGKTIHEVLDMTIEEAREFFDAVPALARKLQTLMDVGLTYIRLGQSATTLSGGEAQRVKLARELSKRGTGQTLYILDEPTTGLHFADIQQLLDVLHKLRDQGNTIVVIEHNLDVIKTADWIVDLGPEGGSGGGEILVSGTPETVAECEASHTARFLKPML
The data set can be described thus: SPR; 0.5 mM ATP, 5 mM Mg2+; SPR: HBS-P+ (10 mM HEPES, 150 mM NaCl, 0.05% P20), 5 mM MgCl2, 1 mM DTT, 100 ug/mL BSA (+0.5 mM ATP for UvrA), pH and temperature not stated; EMSA: 20 mM Hepes-KOH pH 7.9, 75 mM KCl, 5 mM MgCl2, 1 mM DTT, 5% glycerol, 100 ug/mL BSA, 30 C. The following applies: protein: recombinant; chain copies: 2; label: 5'-biotin on strand 1; blunt.

The target of data set [2] is T1, XPC-RAD23B. The data set can be described thus: SPR; 5 mM Mg2+; error as printed is 0.01e-9; SPR: HBS-P+ (10 mM HEPES, 150 mM NaCl, 0.05% P20), 5 mM MgCl2, 1 mM DTT, 100 ug/mL BSA (+0.5 mM ATP for UvrA), pH and temperature not stated; EMSA: 20 mM Hepes-KOH pH 7.9, 75 mM KCl, 5 mM MgCl2, 1 mM DTT, 5% glycerol, 100 ug/mL BSA, 30 C. To be noted: protein: recombinant; copies: 1;1; label: 5'-biotin on strand 1; blunt.

T1 sequence (Q01831 whole entry, chain 1 of 2): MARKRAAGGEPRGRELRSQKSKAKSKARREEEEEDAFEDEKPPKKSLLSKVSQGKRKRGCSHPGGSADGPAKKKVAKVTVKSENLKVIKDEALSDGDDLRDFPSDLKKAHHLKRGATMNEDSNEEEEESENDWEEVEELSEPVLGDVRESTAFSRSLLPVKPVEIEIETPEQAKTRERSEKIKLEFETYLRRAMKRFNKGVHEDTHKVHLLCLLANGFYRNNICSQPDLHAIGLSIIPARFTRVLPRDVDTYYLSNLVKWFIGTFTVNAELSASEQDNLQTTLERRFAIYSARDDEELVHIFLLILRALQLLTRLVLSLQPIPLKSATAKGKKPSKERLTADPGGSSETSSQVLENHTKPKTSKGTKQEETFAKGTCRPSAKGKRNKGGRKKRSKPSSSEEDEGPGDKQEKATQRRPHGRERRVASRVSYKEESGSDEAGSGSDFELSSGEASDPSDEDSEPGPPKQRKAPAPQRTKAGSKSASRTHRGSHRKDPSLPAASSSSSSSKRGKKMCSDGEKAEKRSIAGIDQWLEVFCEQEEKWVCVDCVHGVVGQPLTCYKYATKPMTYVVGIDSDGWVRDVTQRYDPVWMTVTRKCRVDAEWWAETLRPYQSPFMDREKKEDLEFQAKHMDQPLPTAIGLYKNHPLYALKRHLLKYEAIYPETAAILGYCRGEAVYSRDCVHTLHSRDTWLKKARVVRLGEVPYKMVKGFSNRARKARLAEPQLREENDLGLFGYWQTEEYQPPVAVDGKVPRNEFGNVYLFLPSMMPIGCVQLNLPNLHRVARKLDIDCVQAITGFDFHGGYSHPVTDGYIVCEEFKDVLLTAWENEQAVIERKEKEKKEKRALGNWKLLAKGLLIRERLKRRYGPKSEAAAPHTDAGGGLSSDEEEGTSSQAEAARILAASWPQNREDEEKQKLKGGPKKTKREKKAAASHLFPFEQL
T1 sequence (P54727 whole entry, chain 2 of 2): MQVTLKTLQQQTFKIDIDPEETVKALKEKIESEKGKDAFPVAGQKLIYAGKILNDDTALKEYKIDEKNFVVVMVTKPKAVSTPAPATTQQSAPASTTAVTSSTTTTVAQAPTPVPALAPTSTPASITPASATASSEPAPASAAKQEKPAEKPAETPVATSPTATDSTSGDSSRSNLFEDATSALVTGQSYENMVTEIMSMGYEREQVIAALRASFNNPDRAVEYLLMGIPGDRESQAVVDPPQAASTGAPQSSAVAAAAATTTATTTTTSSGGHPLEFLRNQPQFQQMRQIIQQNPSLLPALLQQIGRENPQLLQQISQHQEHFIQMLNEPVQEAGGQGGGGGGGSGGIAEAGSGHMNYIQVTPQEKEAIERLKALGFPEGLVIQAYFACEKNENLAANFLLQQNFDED

B1: NarI-G1 mono-FAAF 55-mer (dsDNA)
DNA 1: CCACTCCTATCCACCATCCATCTTACTCTCGGCGCCATCACCACTCACCACCACA
DNA 2: TGTGGTGGTGAGTGGTGATGGCGCCGAGAGTAAGATGGATGGTGGATAGGAGTGG
modifications: dG-FAAF at G31 (G1) of strand 1
Turning to B1, the results for the Kd with XPC-RAD23B [1] and with UvrA were 1.8 nM and 1.3 nM, respectively.

B2: NarI-G3 mono-FAAF 55-mer (dsDNA)
DNA 1: CCACTCCTATCCACCATCCATCTTACTCTCGGCGCCATCACCACTCACCACCACA
DNA 2: TGTGGTGGTGAGTGGTGATGGCGCCGAGAGTAAGATGGATGGTGGATAGGAGTGG
modifications: dG-FAAF at G34 (G3) of strand 1
On to B2, for which the Kd with UvrA amounted to 3.9 nM; with XPC-RAD23B [2], 1.1 nM.

B3: NarI-G2 mono-FAAF 55-mer (dsDNA)
DNA 1: CCACTCCTATCCACCATCCATCTTACTCTCGGCGCCATCACCACTCACCACCACA
DNA 2: TGTGGTGGTGAGTGGTGATGGCGCCGAGAGTAAGATGGATGGTGGATAGGAGTGG
modifications: dG-FAAF at G32 (G2) of strand 1
As for B3, the Kd in the data set with XPC-RAD23B [1] is 0.9 nM; with UvrA it was 2.4 nM.

B4: NarI-G2G3 di-FAAF 55-mer (dsDNA)
DNA 1: CCACTCCTATCCACCATCCATCTTACTCTCGGCGCCATCACCACTCACCACCACA
DNA 2: TGTGGTGGTGAGTGGTGATGGCGCCGAGAGTAAGATGGATGGTGGATAGGAGTGG
modifications: dG-FAAF at G32 and G34 (G2, G3) of strand 1
In the case of B4, the figures for the Kd with XPC-RAD23B [1] and with UvrA were 0.0042 nM and 0.5 nM, respectively.

B5: NarI-G1G2 di-FAAF 55-mer (dsDNA)
DNA 1: CCACTCCTATCCACCATCCATCTTACTCTCGGCGCCATCACCACTCACCACCACA
DNA 2: TGTGGTGGTGAGTGGTGATGGCGCCGAGAGTAAGATGGATGGTGGATAGGAGTGG
modifications: dG-FAAF at G31 and G32 (G1, G2) of strand 1
In the case of B5, the dissociation constant Kd in the data set with XPC-RAD23B [1] worked out at 0.076 nM; in the data set with UvrA, 0.49 nM.

B6: NarI-G1G3 di-FAAF 55-mer (dsDNA)
DNA 1: CCACTCCTATCCACCATCCATCTTACTCTCGGCGCCATCACCACTCACCACCACA
DNA 2: TGTGGTGGTGAGTGGTGATGGCGCCGAGAGTAAGATGGATGGTGGATAGGAGTGG
modifications: dG-FAAF at G31 and G34 (G1, G3) of strand 1
In the case of B6, the dissociation constant (Kd) was found to be 0.016 nM with XPC-RAD23B [1] and 0.27 nM in the data set with UvrA.
